Assay results as given in patent US20110207917A1.

Molecular target: SAM-6 Receptor (SAM-6/R) glycoprotein, about 80 kDa Grp78 variant of tumor cells (human) (UniProt P11021)
Experiment: FACS on BXPC-3 cells transfected with Grp78 siRNA

Sequence of SAM-6 Receptor (SAM-6/R) glycoprotein, about 80 kDa Grp78 variant of tumor cells (human) (P11021 18-654, change not shown): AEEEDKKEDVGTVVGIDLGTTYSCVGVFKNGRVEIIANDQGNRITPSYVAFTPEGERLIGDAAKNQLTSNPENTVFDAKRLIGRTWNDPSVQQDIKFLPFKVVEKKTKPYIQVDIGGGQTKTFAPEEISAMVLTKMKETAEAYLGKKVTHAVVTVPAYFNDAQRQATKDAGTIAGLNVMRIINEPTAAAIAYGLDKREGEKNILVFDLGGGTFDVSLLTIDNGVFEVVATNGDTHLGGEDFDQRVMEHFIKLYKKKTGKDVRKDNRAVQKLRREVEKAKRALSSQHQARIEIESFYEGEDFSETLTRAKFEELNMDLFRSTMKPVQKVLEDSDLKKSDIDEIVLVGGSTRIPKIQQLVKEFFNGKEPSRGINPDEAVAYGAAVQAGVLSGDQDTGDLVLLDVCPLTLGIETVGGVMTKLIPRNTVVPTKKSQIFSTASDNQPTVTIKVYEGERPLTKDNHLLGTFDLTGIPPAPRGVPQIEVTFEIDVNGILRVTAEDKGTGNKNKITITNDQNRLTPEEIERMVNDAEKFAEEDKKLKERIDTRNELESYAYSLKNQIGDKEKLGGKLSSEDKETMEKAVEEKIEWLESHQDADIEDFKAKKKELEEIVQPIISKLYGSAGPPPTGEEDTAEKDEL

% reduction of binding after Grp78 siRNA transfection: 76%
Substance: anti-GRP78 antibody clone ET-21 (Sigma)
